Biological target: EZH2 (endogenous) (human (endogenous in MDA-MB-231, …, UniProt Q15910 1-746))
Assay: co-IP

EZH2 (endogenous) (human, sequence (Q15910 whole entry): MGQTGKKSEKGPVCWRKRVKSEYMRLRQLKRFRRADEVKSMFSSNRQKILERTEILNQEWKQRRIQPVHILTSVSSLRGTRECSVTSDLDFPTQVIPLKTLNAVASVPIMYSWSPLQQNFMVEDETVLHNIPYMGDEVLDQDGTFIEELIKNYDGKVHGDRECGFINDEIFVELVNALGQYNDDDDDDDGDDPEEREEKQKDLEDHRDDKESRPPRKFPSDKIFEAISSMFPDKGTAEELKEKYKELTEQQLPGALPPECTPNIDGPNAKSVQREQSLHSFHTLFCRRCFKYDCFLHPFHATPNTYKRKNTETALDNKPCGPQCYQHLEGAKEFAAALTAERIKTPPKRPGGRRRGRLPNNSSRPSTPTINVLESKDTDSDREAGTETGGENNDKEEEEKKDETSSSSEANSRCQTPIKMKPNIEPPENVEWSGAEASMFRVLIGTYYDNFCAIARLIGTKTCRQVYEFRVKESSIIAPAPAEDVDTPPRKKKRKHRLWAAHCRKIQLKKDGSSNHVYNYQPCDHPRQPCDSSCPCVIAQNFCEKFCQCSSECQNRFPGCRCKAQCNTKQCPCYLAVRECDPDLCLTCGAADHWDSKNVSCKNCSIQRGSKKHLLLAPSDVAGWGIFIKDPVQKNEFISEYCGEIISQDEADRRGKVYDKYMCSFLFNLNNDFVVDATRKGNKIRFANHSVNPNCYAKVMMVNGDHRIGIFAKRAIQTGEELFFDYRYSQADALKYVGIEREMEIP

B1: EED (endogenous) (natural protein)
chain: not shown
In the case of B1, the “fold binding with PARPi against without PARPi” value is reported as ~4.4 times.

— PMC5786281 (Oncogene, 2017)
